Test results reported in US20140294814A1 (SAMSUNG ELECTRONICS, published 2014).

B1: chimeric clone of AbF46 (Fab) (Fab, V domains shown)
VH: EVKLVESGGGLVQPGGSLRLSCATSGFTFTDYYMSWVRQPPGKALEWLGFIRNKANGYTTEYSASVKGRFTISRDNSQSILYLQMDTLRAEDSATYYCARDNWFAYWGQGTLVTVSA
VL: DILMTQSPSSLTVSAGEKVTMSCKSSQSLLASGNQNNYLAWHQQKPGRSPKMLIIWASTRVSGVPDRFIGSGSGTDFTLTINSVQAEDLAVYYCQQSYSAPLTFGAGTKLELKR
notes: also called chAbF46
B2: mouse antibody AbF46 (antibody, V domains shown)
VH: EVKLVESGGGLVQPGGSLRLSCATSGFTFTDYYMSWVRQPPGKALEWLGFIRNKANGYTTEYSASVKGRFTISRDNSQSILYLQMDTLRAEDSATYYCARDNWFAYWGQGTLVTVSA
VL: DILMTQSPSSLTVSAGEKVTMSCKSSQSLLASGNQNNYLAWHQQKPGRSPKMLIIWASTRVSGVPDRFIGSGSGTDFTLTINSVQAEDLAVYYCQQSYSAPLTFGAGTKLELKR
notes: Mouse monoclonal antibody from a hybridoma; also called monoclonal antibody of hybridoma KCLRF-BP-00220
B3: clone L3E (Fab, V domains shown)
VH: EVQLVESGGGLVQPGGSLRLSCAASGFTFTDYYISWVRQAPGKGLEWVGFIRNKANGYTTEYSASVKGRFTISRDDSKNSLYLQMNSLKTEDTAVYYCARDNWFAYWGQGTLVTVSS
VL: DIVMTQSPLSLPVTPGEPASISCKSSQSLLASGNQNNYLAWYLQKPGQSPQLLIYWASTRVSGVPDRFSGSGSGTDFTLKISRVEAEDVGVYYCQQSYSRPLTFGQGTKLEIKR
B4: clone L1bA (Fab) (Fab, V domains shown)
VH: EVQLVESGGGLVQPGGSLRLSCAASGFTFTDYYISWVRQAPGKGLEWVGFIRNKANGYTTEYSASVKGRFTISRDDSKNSLYLQMNSLKTEDTAVYYCARDNWFAYWGQGTLVTVSS
VL: DIVMTQSPLSLPVTPGEPASISCKSSQSLLAWGNQNNYLAWYLQKPGQSPQLLIYWASTRVSGVPDRFSGSGSGTDFTLKISRVEAEDVGVYYCQQSYSRPLTFGQGTKLEIKR
notes: L3E with S27->W (S27E->W) in CDR-L1; Fab with human kappa constant region and CH1 of human IgG1; also called LlbA
B5: clone 1-F3 (Fab) (Fab, V domains shown)
VH: EVQLVESGGGLVQPGGSLRLSCAASGFTFTDYYISWVRQAPGKGLEWVGFIRNKANGYTTEYSASVKGRFTISRDDSKNSLYLQMNSLKTEDTAVYYCARDNWFAYWGQGTLVTVSS
VL: DIVMTQSPLSLPVTPGEPASISCKSSQSLLAWGNQNNYAAWYLQKPGQSPQLLIYWASTRVSGVPDRFSGSGSGTDFTLKISRVEAEDVGVYYCQQSYSRPLTFGQGTKLEIKR
notes: Clone from the combinatorial library; Fab with human kappa constant region and CH1 of human IgG1
B6: clone C28 (Fab) (Fab, V domains shown)
VH: EVQLVESGGGLVQPGGSLRLSCAASGFTFTDYYISWVRQAPGKGLEWVGFIRNKANGYTTEYSASVKGRFTISRDDSKNSLYLQMNSLKTEDTAVYYCARDNWFAYWGQGTLVTVSS
VL: DIVMTQSPLSLPVTPGEPASISCKSSQSLLAWSNQNNYLAWYLQKPGQSPQLLIYWAITRVGGVPDRFSGSGSGTDFTLKISRVEAEDVGVYYCQQSYSRPLTFGQGTKLEIKR
notes: as for B5
B7: clone C30 (Fab) (Fab, V domains shown)
VH: EVQLVESGGGLVQPGGSLRLSCAASGFTFTDYYISWVRQAPGKGLEWVGFIRNKANGYTTEYSASVKGRFTISRDDSKNSLYLQMNSLKTEDTAVYYCARDNWFAYWGQGTLVTVSS
VL: DIVMTQSPLSLPVTPGEPASISCKSSQSLLAWGFQNNYLAWYLQKPGQSPQLLIYWASTRVGGVPDRFSGSGSGTDFTLKISRVEAEDVGVYYCQQSYSRPLTFGQGTKLEIKR
notes: as for B5
B8: antibody C28m (mutated C28) (Fab, V domains shown)
VH: EVQLVESGGGLVQPGGSLRLSCAASGFTFTDYYISWVRQAPGKGLEWVGFIRNKANGYTTEYSASVKGRFTISRDDSKNSLYLQMNSLKTEDTAVYYCARDNWFAYWGQGTLVTVSS
VL: DIVMTQSPLSLPVTPGEPASISCKSSQSLLAWSNQNNYLAWYLQKPGQSPQMLIIWAITRVGGVPDRFSGSGSGTDFTLKISRVEAEDVGVYYCQQSYSRPYTFGQGTKLEIKR
notes: C28 with L46M, Y49I and L96Y in VL; Described as an antibody fragment cloned into the same vector as the wild type

Columns and labels:
[1] = molecular target: T1, c-Met (NP_000236) (human, UniProt P08581 25-932, limits assumed); test: estimated from several ELISAs, Fab
T1 construct: also called antigen
T1 sequence (P08581 25-932 limits assumed): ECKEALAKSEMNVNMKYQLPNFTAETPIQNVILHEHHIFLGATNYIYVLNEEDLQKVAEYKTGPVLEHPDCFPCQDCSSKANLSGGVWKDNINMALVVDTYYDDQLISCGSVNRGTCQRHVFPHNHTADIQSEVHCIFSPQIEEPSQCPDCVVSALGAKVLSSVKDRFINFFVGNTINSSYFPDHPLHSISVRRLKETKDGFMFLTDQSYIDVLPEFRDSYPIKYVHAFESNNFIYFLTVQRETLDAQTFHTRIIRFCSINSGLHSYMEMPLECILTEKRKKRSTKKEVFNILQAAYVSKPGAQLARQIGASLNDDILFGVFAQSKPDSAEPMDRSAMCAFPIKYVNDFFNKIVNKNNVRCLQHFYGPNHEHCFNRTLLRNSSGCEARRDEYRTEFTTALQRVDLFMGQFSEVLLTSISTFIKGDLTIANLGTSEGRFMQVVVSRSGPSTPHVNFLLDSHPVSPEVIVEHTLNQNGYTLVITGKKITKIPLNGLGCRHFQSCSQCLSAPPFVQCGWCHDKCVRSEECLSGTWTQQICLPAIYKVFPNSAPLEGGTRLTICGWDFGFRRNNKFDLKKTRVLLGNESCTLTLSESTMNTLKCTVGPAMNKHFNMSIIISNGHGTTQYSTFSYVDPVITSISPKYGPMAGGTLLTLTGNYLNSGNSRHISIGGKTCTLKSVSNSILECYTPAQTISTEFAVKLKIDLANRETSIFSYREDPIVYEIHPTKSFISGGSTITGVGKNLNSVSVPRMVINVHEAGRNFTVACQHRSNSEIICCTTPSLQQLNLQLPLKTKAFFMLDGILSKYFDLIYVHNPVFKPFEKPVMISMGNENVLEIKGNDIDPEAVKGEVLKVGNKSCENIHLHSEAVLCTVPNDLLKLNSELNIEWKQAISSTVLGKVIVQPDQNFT

[2] = molecular target: T1, c-Met (NP_000236); test: kinetic measurement, method and format not stated
[3] = molecular target: T2, human IgG1 Fc protein (human, UniProt P01857-1 100-330 = IgG part, limits assumed); test: ELISA, plate-coated human IgG1 Fc protein, hybridoma culture supernatant
T2 construct: domain: Fc; Counter-screen antigen in the hybridoma ELISA; also called human Fc protein; human Fc
Description: The hybridoma cell culture obtained in Example 1(2) was added in an amount of 50 μL to each well of the plates and incubated for 1 hour. The cells remaining unreacted were washed out with a sufficient amount of Tris-buffered saline and Tween 20 (TBST). Goat anti-mouse IgG-horseradish peroxidase (HRP) was added to the plates and incubated for 1 hour at room temperature. The plates were washed with a sufficient amount of TBST. A substrate (OPD) of the peroxidase was added thereto, allowing the substrate and the peroxidase to react. The reaction level was determined by measuring absorbance at 450 nm on an ELISA reader. Hybridoma cell lines which secrete antibodies that specifically and strongly bind to human c-Met protein but not human Fc were selected repeatedly.

[4] = molecular target: T1, c-Met (NP_000236); test: ratio of the KD of chAbF46 to the KD of the clone
[5] = molecular target: T1, c-Met (NP_000236); test: method and reference clone not given

| Binder | Kd [1] [nM] | WT KD/Mutant KD [4] [ratio] | fold enhancement of binding ability [5] [fold] | also measured |
| --- | --- | --- | --- | --- |
| B1 | ~4 | – | – | Kd [2]: 2.19 nM; koff [2]: 0.000723 s⁻¹; kon [2]: 329000 M⁻¹ s⁻¹ |
| B2 | – | – | – | binding result [3]: no binding |
| B3 | ~30 | – | – | – |
| B4 | ~0.3 | 12.8 | – | fold improvement in binding over the starting clone L3E [1]: ~100 fold |
| B5 | – | 8.8 | ~3 | – |
| B6 | – | 19.9 | ~3 | – |
| B7 | – | 13.7 | ~3 | – |
| B8 | – | – | – | Kd [2]: < 0.01 nM; koff [2]: < 7.4e-05 s⁻¹; kon [2]: 940000 M⁻¹ s⁻¹ |
